Reference: paper PMC4572887, “GnT1IP-L specifically inhibits MGAT1 in the Golgi via its luminal domain” (eLife, 2015)

How the values were obtained:
[1] = molecular target: the molecule itself; assay: FRET or BRET; COS-7 cells stably expressing GnT1IP-L-mVen, co-transfected with GnT1IP-L-mChe and MGAT1-HA as competitor, with or without 40 µM chloroquine for 4 or 16 hr; FRET efficiency by acceptor bleaching
[2] = molecular target: T1, human MGAT1-mChe (human, UniProt P26572 1-445); assay: FRET or BRET; acceptor-bleaching FRET microscopy on fixed cells, mVen donor and mChe acceptor; COS-7 cells stably expressing GnT1IP-L-mVen, transiently transfected with the mChe-tagged partner; untreated controls, recovery 4 hr after removal of nocodazole, and 40 µM chloroquine for 4 or 16 hr; settings: partners not purified
T1 construct: N-acetylglucosaminyltransferase MGAT1, human, full-length cDNA clone; also called GlcNAc-TI; GnT-1; source: COS-7 or Lec1 CHO cells, transiently transfected; in cells; not shown: monomeric mCherry (mChe), C-terminal, kept
T1 sequence (looked up): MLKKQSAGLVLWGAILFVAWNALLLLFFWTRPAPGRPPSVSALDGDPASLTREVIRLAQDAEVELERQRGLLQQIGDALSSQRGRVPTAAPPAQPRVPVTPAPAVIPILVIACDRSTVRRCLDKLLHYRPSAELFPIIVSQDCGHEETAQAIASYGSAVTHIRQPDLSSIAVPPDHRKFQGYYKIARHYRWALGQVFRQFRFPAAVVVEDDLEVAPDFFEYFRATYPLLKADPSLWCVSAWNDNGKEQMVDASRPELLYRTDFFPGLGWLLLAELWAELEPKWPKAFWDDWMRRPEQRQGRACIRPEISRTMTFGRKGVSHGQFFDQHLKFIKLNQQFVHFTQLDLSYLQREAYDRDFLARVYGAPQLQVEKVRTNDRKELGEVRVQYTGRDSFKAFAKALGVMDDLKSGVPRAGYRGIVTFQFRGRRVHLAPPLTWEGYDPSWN

[3] = molecular target: the molecule itself; assay: as above

B1: Mouse GnT1IP-L-mVen (natural protein, UniProt Q9D4R2-2 1-417, looked up)
chain: MCLGESVGDLRTVATAPWEGEQARGVKDAGSVPVQPGVGSDAATMKAKNVNLLFAFVAVLLFGFSCFCISRMNQTNNQLINCRNHVLEFKEIMLRLKNKSENHHQDLMQVLYQMKRKAAHTTRSSGNFLEKKGSILSQHETLPNQFEVLKYFLPHLRTAGKLYPAIATSKGRAGVSFALGISTINRGNHTYLKQTLTSVLSRMTPEEEEDSVVIVSVADTDESYLKSVVRMVKTKFRKQVQSGVLEVISIPTLFYPQTLLDKKTKTDSESWQIKQVLDFCILMLYAQPKATYYLQLEDDIVAKKMYFTKMKDFVNSLTSKNWFFIEFSVLGFIGKLFRSKDLTDFVHFFLMFYETKPIDILLDDIFLIRVCISGEPVRSCLQRKKGFRIQYRPSLFQHVGTQSSFPGREQHLKDNYY
notes: GnT1IP-L, mouse, the long form of 417 aa (GnT1IP-S with 44 additional N-terminal amino acids), GenBank HM067443; In the homomer FRET experiments the second copy carried C-terminal monomeric mCherry (GnT1IP-L-mChe) instead of mVen; it is written as the same molecule; also called MGAT4D (long form); source: COS-7 or Lec1 CHO cells stably expressing it, or COS-7 cells transiently transfected; in …
Question: Which “fold increase of homomer FRET with chloroquine, MGAT1-HA co-expressed as competitor” value [1] does the source give for B1 here?
Answer: ~2 fold

Question: And the “FRET efficiency (untreated control)” value [2]?
Answer: 38%

Question: What about the “FRET efficiency (untreated control)” value [3] of the same binder?
Answer: 32%
